B1: CD9 Δ133-192 (receptor)
chain: MPVKGGTKCIKYLLFGFNFIFWLAGIAVLAIGLWLRFDSQTKSIFEQETNNNNSSFYTGVYILIGAGALMMLVGFLGCCGAVQESQCMLGLFFGFLLVIFAIEIAAAIWGYSHKDEVIKEVQEFYKDTYNKLFHIIGAVGIGIAVVMIFGMIFSMILCCAIRRNREMV
B2: CD9 Δ113-228 (receptor)
chain: MPVKGGTKCIKYLLFGFNFIFWLAGIAVLAIGLWLRFDSQTKSIFEQETNNNNSSFYTGVYILIGAGALMMLVGFLGCCGAVQESQCMLGLFFGFLLVIFAIEIAAAIWGYS
B3: CD9 Δ173-192 (receptor)
chain: MPVKGGTKCIKYLLFGFNFIFWLAGIAVLAIGLWLRFDSQTKSIFEQETNNNNSSFYTGVYILIGAGALMMLVGFLGCCGAVQESQCMLGLFFGFLLVIFAIEIAAAIWGYSHKDEVIKEVQEFYKDTYNKLKTKDEPQRETLKAIHYALNCCGLAGGVEQFISDICPKKDVFHIIGAVGIGIAVVMIFGMIFSMILCCAIRRNREMV

What was measured:
human plasma fibronectin [1] = biological target: T1, human plasma fibronectin (human, UniProt P02751-8 32-2296, limits assumed); assay: cell-based or functional assay
T1 sequence (P02751 other isoform, or with tags, fused parts or gaps limits assumed): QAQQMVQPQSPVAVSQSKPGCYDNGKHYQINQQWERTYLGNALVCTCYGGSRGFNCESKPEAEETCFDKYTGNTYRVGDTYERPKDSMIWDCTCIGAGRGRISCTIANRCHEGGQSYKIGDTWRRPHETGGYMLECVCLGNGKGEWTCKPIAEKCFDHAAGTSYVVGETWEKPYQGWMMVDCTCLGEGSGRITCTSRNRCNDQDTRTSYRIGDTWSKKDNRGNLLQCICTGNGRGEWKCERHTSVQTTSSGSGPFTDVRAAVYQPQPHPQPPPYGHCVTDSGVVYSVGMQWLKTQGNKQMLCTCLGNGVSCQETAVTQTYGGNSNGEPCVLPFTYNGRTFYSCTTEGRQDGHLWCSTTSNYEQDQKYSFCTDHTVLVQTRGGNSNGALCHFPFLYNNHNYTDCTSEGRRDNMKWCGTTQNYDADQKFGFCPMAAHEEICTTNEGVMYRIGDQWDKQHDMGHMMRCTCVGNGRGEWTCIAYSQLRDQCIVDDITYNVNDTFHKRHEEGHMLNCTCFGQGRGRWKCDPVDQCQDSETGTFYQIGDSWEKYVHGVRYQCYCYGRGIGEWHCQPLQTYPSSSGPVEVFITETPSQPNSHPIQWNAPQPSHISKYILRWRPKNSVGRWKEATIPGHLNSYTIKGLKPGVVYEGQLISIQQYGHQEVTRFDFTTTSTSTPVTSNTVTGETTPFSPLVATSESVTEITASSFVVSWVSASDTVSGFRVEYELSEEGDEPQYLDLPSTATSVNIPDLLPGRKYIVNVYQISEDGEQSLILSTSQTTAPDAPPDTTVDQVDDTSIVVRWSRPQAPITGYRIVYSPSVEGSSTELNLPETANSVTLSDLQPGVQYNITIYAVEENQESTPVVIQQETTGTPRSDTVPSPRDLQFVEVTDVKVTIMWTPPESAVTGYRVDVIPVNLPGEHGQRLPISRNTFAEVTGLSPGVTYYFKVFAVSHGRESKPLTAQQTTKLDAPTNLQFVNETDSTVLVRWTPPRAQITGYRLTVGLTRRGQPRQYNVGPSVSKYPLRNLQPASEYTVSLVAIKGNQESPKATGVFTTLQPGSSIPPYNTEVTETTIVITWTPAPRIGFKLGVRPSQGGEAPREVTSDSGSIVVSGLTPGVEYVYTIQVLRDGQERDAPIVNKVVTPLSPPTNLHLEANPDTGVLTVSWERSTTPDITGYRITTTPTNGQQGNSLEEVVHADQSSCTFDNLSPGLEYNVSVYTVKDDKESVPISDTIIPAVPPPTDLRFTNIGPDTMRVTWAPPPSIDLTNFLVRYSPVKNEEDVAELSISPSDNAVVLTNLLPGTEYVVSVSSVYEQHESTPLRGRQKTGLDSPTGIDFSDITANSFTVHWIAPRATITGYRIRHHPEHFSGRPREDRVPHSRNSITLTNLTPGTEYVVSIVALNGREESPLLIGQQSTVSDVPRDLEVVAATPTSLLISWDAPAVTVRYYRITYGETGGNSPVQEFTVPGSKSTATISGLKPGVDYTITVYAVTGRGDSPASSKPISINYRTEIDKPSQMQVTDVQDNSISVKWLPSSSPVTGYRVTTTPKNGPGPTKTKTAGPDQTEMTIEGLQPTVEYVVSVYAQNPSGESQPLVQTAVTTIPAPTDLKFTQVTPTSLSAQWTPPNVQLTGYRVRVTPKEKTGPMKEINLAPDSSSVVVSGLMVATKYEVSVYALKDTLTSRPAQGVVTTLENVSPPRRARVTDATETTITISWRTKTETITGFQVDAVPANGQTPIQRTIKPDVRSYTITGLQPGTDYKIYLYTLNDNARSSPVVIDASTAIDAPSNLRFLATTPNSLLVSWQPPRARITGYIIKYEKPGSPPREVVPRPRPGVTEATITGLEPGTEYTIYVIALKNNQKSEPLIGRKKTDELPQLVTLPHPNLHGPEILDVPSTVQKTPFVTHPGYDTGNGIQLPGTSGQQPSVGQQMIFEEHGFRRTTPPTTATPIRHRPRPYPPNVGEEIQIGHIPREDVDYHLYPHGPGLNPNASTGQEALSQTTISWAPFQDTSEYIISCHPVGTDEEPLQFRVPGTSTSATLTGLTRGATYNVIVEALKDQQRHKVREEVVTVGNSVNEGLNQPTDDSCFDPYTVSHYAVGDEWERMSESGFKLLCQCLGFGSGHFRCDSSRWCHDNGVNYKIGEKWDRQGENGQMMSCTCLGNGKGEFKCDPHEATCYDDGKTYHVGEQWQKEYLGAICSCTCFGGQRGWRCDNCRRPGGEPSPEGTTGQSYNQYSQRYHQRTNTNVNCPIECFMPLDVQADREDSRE

human plasma fibronectin [2] = biological target: T1, human plasma fibronectin; assay: competition ELISA, peptide 6 titrated 0-160 µM against FN binding to immobilized CD9
Procedure: FIG. 2C illustrates the effect of titrations of Peptide 6 (0-160 μM) on FN-CD9 binding was evaluated. […] The ability of CD9-CHO-B2 cells to adhere to FN was compared with Mock-CHOB2 cells. CD9-CHO-B2 cells had increased adhesion to FN in the absence of integrin α5β1 expression when compared to Mock-CHO-B2 cells. […] A scrambled control (peptide 6S) had no significant effect on CD9-CHO-B2 cell adhesion (p>0.005).
All incubation periods for the CD9/FN binding ELISA lasted two hours at RT unless otherwise indicated. Immulon I (Dynatech) microtiter plate wells were coated with CD9 (2 μg/ml), His₆-rCD9 (2 μg/ml), BSA (10 μg/ml), or peptide (10 μM) in Buffer A. After one wash with Buffer B, plates were blocked with Blocking Buffer 1.1% BSA was included in steps from ligand overlay to addition of mAb conjugate to minimize non-specific binding. Titrations of human plasma FN in Buffer B were added to plates either alone, or in the case of competition ELISAs, with 0-160 μM synthetic peptide. Plates were washed three times with ELISA Buffer B, followed by incubation with a 1/1000 dilution of rabbit anti-FN antibody. After two washes with Buffer B and one wash with Buffer C, plates were incubated with 1/500 antirabbit IgG alkaline phosphatase in Buffer C for one hour at RT. After four washes with Buffer C, 1 mg/mlp-nitrophenyl phosphate substrate was added and the absorbance at 405 nm was recorded.

Row | Binder | reduction in haptotactic motility to FN (human plasma fibronectin [1]) [%] | IC50 (read off the curve) (human plasma fibronectin [2]) [µM]
1 | B1 | 64 | –
2 | B2 | 58 | –
3 | B3 | 45 | –
4 | PKKDVLETFTVKSCPDAIKEVFDNK (Synthetic peptide of CD9 EC2) [peptide 6] | – | ~20
